These results are taken from paper PMC7948976, “KIF3A accelerates KIF3C within the kinesin-2 heterodimer to generate symmetrical phosphate release rates for each processive step” (The Journal of Biological Chemistry, 2020).

Test in all cases: stopped-flow presteady-state phosphate release, MDCC-PBP fluorescence; hyperbolic fit of initial exponential rates
Common to all, as to type: biochemical, Mus musculus

Substrate in series [1]: Nc1ncnc2c1ncn2[C@@H]1O[C@H](COP(=O)(O)OP(=O)(O)OP(=O)(O)O)[C@@H](O)[C@H]1O
The note with it: preformed microtubule-KIF3 complex (2 μM MT, 0.5 μM dimer in syringe), 250 mM KCl in ATP syringe, 5 mM magnesium acetate, pH 7.2, 25 °C, not steady-state Km. An excerpt:
stopped-flow presteady-state phosphate release, MDCC-PBP fluorescence; hyperbolic fit of initial exponential rates on KIF3AC

Substrate in series [2]: Nc1ncnc2c1ncn2[C@@H]1O[C@H](COP(=O)(O)OP(=O)(O)OP(=O)(O)O)[C@@H](O)[C@H]1O
The following applies: preformed microtubule-KIF3 complex (2 μM MT, 0.5 μM dimer in syringe), 300 mM KCl in ATP syringe, 5 mM magnesium acetate, pH 7.2, 25 °C, not steady-state Km. The text has this: stopped-flow presteady-state phosphate release, MDCC-PBP fluorescence; hyperbolic fit of initial exponential rates on KIF3AA

Substrate in series [3]: Nc1ncnc2c1ncn2[C@@H]1O[C@H](COP(=O)(O)OP(=O)(O)OP(=O)(O)O)[C@@H](O)[C@H]1O
The following applies: preformed microtubule-KIF3 complex (2 μM MT, 0.5 μM dimer in syringe), 300 mM KCl in ATP syringe, 5 mM magnesium acetate, pH 7.2, 25 °C, not steady-state Km. The text has this:
stopped-flow presteady-state phosphate release, MDCC-PBP fluorescence; hyperbolic fit of initial exponential rates on KIF3CC
The source holds these as a separate data set.

B1: KIF3AC (Mus musculus) (protein)
chain 1: MPINKSEKPESCDNVKVVVRCRPLNEREKSMCYRQAVSVDEMRGTITVHKTDSSNEPPKTFTFDTVFGPESKQLDVYNLTARPIIDSVLEGYNGTIFAYGQTGTGKTFTMEGVRAVPGLRGVIPNSFAHIFGHIAKAEGDTRFLVRVSYLEIYNEEVRDLLGKDQTQRLEVKERPDVGVYIKDLSAYVVNNADDMDRIMTLGHKNRSVGATNMNEHSSRSHAIFTITIECSEKGVDGNMHVRMGKLHLVDLAGSERQAKTGATGQRLKEATKINLSLSTLGNVISALVDGKSTHVPYRNSKLTRLLQDSLGGNSKTMMCANIGPADYNYDETISTLRYANRAKNIKNKARINEDPKDALLRQFQKEIEELKKKL
chain 2: MASKTKASEALKVVARCRPLSRKEEAAGHEQILTMDVKLGQVTLRNPRAAPGELPKTFTFDAVYDASSKQADLYDETVRPLIDSVLQGFNGTVFAYGQTGTGKTYTMQGTWVEPELRGVIPNAFEHIFTHISRSQNQQYLVRASYLEIYQEEIRDLLSKEPGKRLELKENPETGVYIKDLSSFVTKNVKEIEHVMNLGNQARAVGSTHMNEVSSRSHAIFVITVECSERGSDGQDHIRVGKLNLVDLAGSERQNKAGPNAAGGPATQPTAGGGSGSGSASGSASSGERPKEASKINLSLSALGNVIAALAGNRSTHIPYRDSKLTRLLQDSLGGNAKTIMVATLGPASHSYDESLSTLRFANRAKNIKNKPRVNEDPKDTLLREFQEEIARLKAQL
notes: heterodimer; motor domain, neck linker and helix α7 (KIF3A Met1-Leu374, KIF3C Met1-Leu396), each fused to EB1 dimerization domain; KIF3A StrepII tag, KIF3C His8 tag, tags not cleaved; E. coli; dimer MW 98,318
B1: the K0.5 in series [1] came to 28.2 ± 1.8 µM.

B2: KIF3AA (Mus musculus) (protein)
chain: B1 chain 1
notes: engineered homodimer; motor domain Met1-Leu374 fused to EB1 dimerization domain; His8 tag not cleaved; E. coli; dimer MW 97,004
Turning to B2, the K0.5 in series [2] amounted to 30.9 ± 4.7 µM.

B3: KIF3CC (Mus musculus) (protein)
chain: B1 chain 2
notes: engineered homodimer; motor domain, neck linker and helix α7 (Met1-Leu396) fused to EB1 dimerization domain; His8 tag not cleaved; E. coli; dimer MW 99,518 (borders printed for the KIF3C chain of KIF3AC; mass agrees)
Take B3: the K0.5 in series [3] came to 13.9 ± 3.5 µM.
